Data on one substance can be found in paper PMC4646684.

The target of assay [1] is soluble form of Fas ligand (mouse (endogenous in primary Balb/cJ bone marrow-derived osteoclast cultures)).
The target is the same in assay [2]. The source holds these as a separate data set.

soluble form of Fas ligand (mouse (endogenous in primary Balb/cJ bone marrow-derived osteoclast cultures)), sequence (P41047 101-279): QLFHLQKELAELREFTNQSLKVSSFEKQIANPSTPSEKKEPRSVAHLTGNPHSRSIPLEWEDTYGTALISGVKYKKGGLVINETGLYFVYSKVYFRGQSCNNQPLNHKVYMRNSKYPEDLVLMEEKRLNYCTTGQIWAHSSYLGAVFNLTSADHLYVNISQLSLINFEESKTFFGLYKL

As to “Osteoprotegerin (from UniProt O08712 22-401) (receptor)”, the percentage of apoptotic osteoclasts (TUNEL-derived method), 24 h with OPG at 0, 20, 40, 80 ng/mL (22.7%, 34.8%, 43.5%, 51.3%) in assay [1] stood at 51.3%. This substance yielded a concentration of soluble FasL in the osteoclast culture medium by ELISA, 24 h with OPG at 0, 20, 40, 80 ng/mL (69.44, 54.51, 41.71, 4.59 pg/mL; falls with the dose) in assay [2] of 69.4 pg/mL.
